Data reported in patent US20140018288A1, “X-DING-CD4 Peptide” (priority 2012, published 2014).

Columns and labels:
[1] = system: EcoHIV (ecotropic HIV-1 EcoNDK); experiment: EcoHIV mouse model of HIV infection, Tat and Vif mRNA by qRT-PCR; type: in vivo, C57BL mice; conditions: two intraperitoneal doses of 20 μg
Description: The mouse model of HIV infection is well-known by persons skilled in the art and is widely used to study therapeutic activities of various pharmaceutical agents. It was generated by using chimeric HIV (EcoHIV), which is a modified HIV that can infect mouse T cells and macrophages and can establish persistent infection of immunocompetent mice after intravenous or intraperitoneal exposure (Potash et al., 2005). The EcoHIV infection mouse model reproduces many characteristics of HIV-1 infection in humans such as virus targeting to lymphocytes and macrophages, induction of antiviral immune responses, neuroinvasiveness, and elevation of expression of inflammatory and antiviral factors in the brain (Potash et al., 2005). […]
In this example, we started with three groups of C57BL mice (groups I, II and III), each group having three mice. […] The amount of EcoHIV-1 virus load was assessed by determining the messenger RNA (mRNA) levels of HIV-Tat and Vif genes by quantitative RT-PCR (qRT-PCR). The amount of HIV-1 Gag DNA in the each sample, which was also determined by qRT-PCR, was used as a quantitative control for the HIV-Tat and Vif mRNA levels. […]

NL4-3 HIV-1 isolate = experiment: MAGI assay of HIV-1 replication in MAGI-CCR-5 cells; type: cell-based; conditions: MAGI-CCR-5 cells, NL4-3 HIV-1
Protocol: The antiviral activity of rX-DING-CD4^pep was tested by MAGI assay. […] Subsequently, cells were exposed to rX-DING-CD4^pep treatment in the presence of DMEM supplemented with 5% fetal bovine serum, antibiotics, glutamate and […] DEAE dextran. […] Replication of virus was evaluated forty eight hours later after fixation of cells with 1% formaldehyde and 0.2% glutaraldehyde in PBS. Expression of β-galactosidase was visualized by 50 min exposure to X-GAL (5-bromo-4-chloro-3-indolyl-β-D-galactopyranoside), 0.4 mg/ml 2 mM MgCl2, 4 mM potassium ferricyanide at 37° C. After enumeration of the infected (blue) cells, all cells were lysed and subjected to the protein assay (Bio-Rad). All data were adjusted by total protein concentration and anti-viral activity was calculated as percent inhibition. The infected untreated and uninfected cells served as (+) and (−) controls to calculate 100% virus infectivity. The inhibition values for HIV-1 replication were calculated based on the formula [(R1−R0)×100/Z]-100; where R1 is the value obtained from cells infected by HIV-1 and treated with specific dilution of X-DING-CD4^pep and R^0 is the basal value obtained from the uninfected and untreated cells; Z is the absolute HIV-1 replication value calculated as Z═Rmax−R0, where Rmax is the value representing 100% of HIV-1 replication in X-DING-CD4^pep untreated cells.

X-DING-CD4 mRNA = experiment: Induction of X-DING-CD4 mRNA expression in 1G5 cells (qRT-PCR); type: cell-based; conditions: 6 hours, 200 ng/ml
Protocol: The sX-DING-CD4 may be released from the macropinosome to endoplasmic reticulum (ER) and cause induction of IFNα, which in turn induces the expression of X-DING-CD4 mRNA and endogenous X-DING-CD4 protein (step 2). The induction of X-DING-CD4 mRNA by sX-DING-CD4 was tested in 1G5 cells. Briefly, three groups of 1G5 cells were treated for 6 hours with NL4-3 HIV-1 at MOI of 0.1, 200 ng/ml native X-DING-CD4 protein, and 1-126 rX-DING-CD4 peptide (i.e., rX-DING-CD4^pep), respectively. […] The eX-DING-CD4, derived from the newly synthesized X-DING-CD4, binds CN and is transported into the nucleus where it blocks LTR transcription (steps 2-7).
Two peptide fragments from the N-terminal region of X-DING-CD4 were synthesized and their activities in inducing IFN-α and X-DING-CD4 mRNA expressions were determined by qRT-PCR. The concentration of proteins used in the assays was 200 ng/ml except for the combination of XD-1 and XD-4 where we used 100 ng/ml of each peptide. The 1-126 rX-DING-CD4 and peptide C3 p16 served as positive and negative controls, respectively. The C3 Peptide P16 was derived from the C3d component of serum complement. C3 Peptide P16 regulates B cells, but not T cells, through interacting with the gp140 C3d receptor (CR2).

[2] = Acute toxicity after intraperitoneal injection in mice; type: in vivo, mice (B6/SJL); conditions: 1-50 μg rX-DING-CD4^pep or 50 μg nX-DING-CD4, 7 days
Protocol: In the animal tests, eight-week old wild-type mice (B6/SJL) with both genders in each test group were injected intraperitoneally with 1-50 μg of rX-DING-CD4^pep or 50 μg nX-DING-CD4. The nX-DING-CD4 refers to the native form of X-DING-CD4 protein that was purified through IXC chromatography from the extracellular compartment of HIV-1 resistant T-cells. The rX-DING-CD4^pep refers to therapeutic X-DING-CD4 peptide that was expressed in E. coli and purified through Ni-affinity column. Toxicity was assessed by obvious symptoms including diarrhea, ruffled fur, abnormal gait, or loss of more than 10% weight. Animals were weighted before injection and then observed every hour for the first 10 hours after injection; then animals were weighted on 1, 3, 4 and 7 days after X-DING-CD4 administration. […] In its highest administered dose (50 μg—corresponding to 2 μg/G) we exceeded therapeutic dose blocking 95% of HIV promoter activity (by RSA assays) and 90% virus replication (by MAGI assays) (See FIGS. 2 & 3 in Example 2).

B1: MADINGGGATLPQPLYQTSGVLTAGFAPYIGVGSGKGKLAFLNNDYSQFGTGTKNVHWAGSDSKLTSTELSTYASTKQAAWGKLIQVPSVATSVAIPFNKAGSNAVDLSVDQLCGVFSGRITTWNQ (protein, listed as Homo sapiens)
chain: MADINGGGATLPQPLYQTSGVLTAGFAPYIGVGSGKGKLAFLNNDYSQFGTGTKNVHWAGSDSKLTSTELSTYASTKQAAWGKLIQVPSVATSVAIPFNKAGSNAVDLSVDQLCGVFSGRITTWNQ
[1]; 48 hours
  expression of EcoHIV Tat mRNA and vif mRNA versus saline or heat inactivated peptide: decreased expression
[1]; two days after infection
  transcription of EcoHIV blocked: 75%
NL4-3 HIV-1 isolate
  IC50: 18.9 nM
  IC80: 151 nM
X-DING-CD4 mRNA
  expression of X-DING-CD4 mRNA: induced expression of X-DING-CD4 mRNA
[2]
  obvious symptoms of toxicity (diarrhea, ruffled fur, abnormal gait): Neither of rX-DING-CD4^pep treatment nor nX-DING-CD4 treatment caused any obvious symptoms
